Target: SARS-CoV-2 spike receptor-binding domain (RBD), wild type (Severe acute respiratory syndrome …, UniProt P0DTC2)
Assay: SPR
Details: both partners purified

B1: 7B8, recombinant fully human IgG1 (antibody, V domains shown)
VH: QVQLVESGGGVVQPGRSLRLSCAASGFIFSSYGMHWVRQAPGKGLEWVAVIWFDGSNKYYADSVKGRFTISRDNSKNTLYLQMNSLRAEDTAVYYCARETVSYGMDVWGQGTTVTVSS
VL: NIQMTQSPSAMSASVGDRVTITCRARQGISNYLAWFQQKPGKVPKHLIYAASSLLSGVPSRFSGSGSETEFTLTISSLQPEDFATYYCLQHNSYPYTFGQGTKLEIK
notes: also called Ab4; source: ExpiCHO-S, transient expression, purified (protein A)
Kd: 0.523 nM | koff: 9.55e-05 s⁻¹ | kon: 182000 M⁻¹ s⁻¹
